The nature of this data set: yeast display, Sf9 membrane polyspecificity reagent, FACS + sequencing; frameworks hold sequencing errors. Put shortly:
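Polyreactivity labels are assigned by the sorting gate from which each nanobody was recovered. The gates were low and high (top ~1%), set on anti-HA fluorescence for expression and streptavidin fluorescence for reagent binding. Before sorting, galactose-induced (36–48 hours) yeast display cells were stained for 1 hour at 4 °C with 10% biotinylated, detergent-solubilized Sf9 membrane reagent.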
As for “QVQLVESGGGLVQAGGSLRLSCAASGRTFGYNAMGWYRQAPGKERELVATISWGGGSTYYADSVKGRFTISRDNAKNTVYLQMNSLKPEDTAVYYCNKVHYGRRHSYSGAIYGEDYWGQGTQVTVSS”, the “polyreactivity (PSR sort gate)” value is on record as “high polyreactivity”. Consider “QVQLVESGGGLVQAGGSLRLSCAASGRTFGYNAMGWYRQAPGKERELVAVITSSGGRTYADSVKGRFTISRDNAKNTVYLQMNSLKPEDTAVYYCATRTRLAQYSRGRYRYDYWGQGTQVTVSS”, for which the “polyreactivity (PSR sort gate)” value is recorded as “high polyreactivity”.

As for “QVQLVESGGGLVQAGGSLRLSCAASGRTFGYNAMGWYSQAPGKETELVAAINWSDASTYYADSVKGRFTISRDNAKNTVSLQMNSLKPEDTAVYYCAADYSYIYGFDYWGQGTLVTVSS”, the “polyreactivity (PSR sort gate)” value is on record as “low polyreactivity”. Regarding “QVQLVESGGGLVQAGGSLRLSCAASGRTFGYYAMGWYRQAPGKEREFVAAISSSGGSTYYADSVKGRFTISRDNAKNTVYLQMNSLKPEDTAVYYCAARRNYFYGYYYWGQGTQVTVSS”, the “polyreactivity (PSR sort gate)” value is on record as “high polyreactivity”. The same measure for “QVQLVESGGGLVQAGGSLRLSCAASGRTFGYYAMGWYRQAPGKERELVAAISNSGGRTYYADSLKGRFTISRDNAKNTVYLQMNSLKPEDTAVYYCAAVVSYRFDYWGQGTQVTVSS”: “high polyreactivity”; for “QVQLVESGGGLVQAGGSLRLSCAASGRTFGYYAMGWYRQAPGKERELVAAISSRGGSTYYADSVKGRFTISRDNAKNTVYLQMNSLKPEDTAVYYCNTRWTNIHPRYDYWGQGTQVTVSS”: “high polyreactivity”; for “QVQLVESGGGLVQAGGSLRLSCAASGRTFGYYAMGWYRQAPGKERELVATITWSGGSTYYADSVKGRFTISRDNAKNTVYLQMNSLKPEDTAVYYCATDALYTYGYDYWGQGTQVTVSS”: “low polyreactivity”.

For “QVQLVESGGGLVQAGGSLRLSCAASGRTFGYYAMGWYRQAPGTERELVASISSRGGSSYYADSVKGRFTISRDNAKNTVYLQMNSLKPEDTAVYYCNAPSWSGSRTYYYWGQGTQVTVSS”, the “polyreactivity (PSR sort gate)” value is “high polyreactivity”.

Regarding “QVQLVESGGGLVQAGGSLRLSCAASGRTFGYYAMGWYRQSPGKERELVAAITSGGRTYYADSVKGRFTISRDNAKNTVYLQMNSLKPEDTAVYYCNAPARWGSRVAWYEYWGQGTQVSVSS”, the “polyreactivity (PSR sort gate)” value is “high polyreactivity”. Regarding “QVQLVESGGGLVQAGGSLRLSCAASGRTFGYYVMGWYRQAPGKERELVAAITYTGGSTYYADSVKGRFTISRDNAKNTVYLQMNSLKPEDTAVYYCATSTYKPTYGYDYWGKGTQVTVSS”, the “polyreactivity (PSR sort gate)” value is reported as “low polyreactivity”. Regarding “QVQLVESGGGLVQAGGSLRLSCAASGRTFHGYAMGWYRQAPGKERELVAAINASGGRTYYADSVKGRFTISRDNAKNTVYLQMNRLKPEDTAVYYCAVYSASFRYGLAYDYWGQGTQVTVSS”, the “polyreactivity (PSR sort gate)” value is “high polyreactivity”. The same measure for “QVQLVESGGGLVQAGGSLRLSCAASGRTFHIYAMGWYRQAPGKERELVAAIRGRSGSTYYADSVKGRFTISRDNAKNTVYLQMNSLKPEDTAVYYCAAEYWGRYGAPEYDYWGQGTQVTVSS”: “high polyreactivity”; for “QVQLVESGGGLVQAGGSLRLSCAASGRTFHRYVMGWYRQAPGKERELVAAISKSGGRTYYADSVKGRFTISRDNAKNTVYLQMNSLKPEDTAVYYYNARTAAGALYDYWGQGTQVTVSS”: “high polyreactivity”.

For “QVQLVESGGGLVQAGGSLRLSCAASGRTFHVYAMGWYRPAPGKERELVATITDGSTNYADSVKGRFTISRDNAKNTVYLQMNSLKPEDSAVYYCATVRAWIPSGDYEYWGQGTQVTVSS”, the “polyreactivity (PSR sort gate)” value is recorded as “low polyreactivity”.

In the case of “QVQLVESGGGLVQAGGSLRLSCAASGRTFHYNAMGWYRQAPGKERELVAAITRSGGSTYYADSVKGRFTISRDNAKNTVYLQMNSLKPEDTAVYYCAAGWRSVSVRYYGPSDYWGQGTQVTVSS”, the “polyreactivity (PSR sort gate)” value is “low polyreactivity”.

Turning to “QVQLVESGGGLVQAGGSLRLSCAASGRTFHYYAMGWYRQAPGKERELVAAISVSGGSTYYADSVKGRFTISRDNAKNTVYLQMNSLKPEDTAVYYCAADDYLVEHDYWGQGTQVTVSS”, the “polyreactivity (PSR sort gate)” value is “low polyreactivity”. With “QVQLVESGGGLVQAGGSLRLSCAASGRTFHYYAMGWYRQAPGKERELVAAITRGGNTYYADSVKGRFTISRDNAKNTVYLQMNSLKPEDTAVYYCAKDNHFEAYRYDYWGQGTQVTVSS”, the “polyreactivity (PSR sort gate)” value is recorded as “low polyreactivity”. The result for “QVQLVESGGGLVQAGGSLRLSCAASGRTFHYYVRGWSRQAPGKERELVAAISRSGGNTYYADSVKGRFTISRDNAKNTVYLQMNSLKPEDTAVNYCAAALSAYVKWDYYYWGQGTQVTVSS” reads “low polyreactivity”; that for “QVQLVESGGGLVQAGGSLRLSCAASGRTFIAYAMGWYRPAPGKERALVAAITSSGGSTYYADSVKGRFTISRDNAKNTVYLQMNSLKPEDTAVFYCATDIYESPYFYYSYYYWGQGTQVTVSS”, “low polyreactivity”. The same measure for “QVQLVESGGGLVQAGGSLRLSCAASGRTFIENAMGWYRQAPGKERELVAAISRGGSTYYADSVKGRFTMSRDNAKNTVYLQMNSLKPEDTAVYYCAADYFYLFHYSSQKYSRYEYWGQGTQVTVSS”: “low polyreactivity”. The result for “QVQLVESGGGLVQAGGSLRLSCAASGRTFIGNAMGWYRQAPGKERELVATITSSAGTTYYADSVKGRFTISRDNAKNTVYLQMNSLKPEDTAVYYCAKRIWRSYPYRAYYSEFGYWGQGTQVTVSS” reads “high polyreactivity”.

With “QVQLVESGGGLVQAGGSLRLSCAASGRTFIIYAMGWYRQAPGKERELVATISIGGSTYADSVKGRFTISRDNAKNTVYLQMNSLKPEDTAVYYCAARGRKYPPRDYWGQGPQVTVSS”, the “polyreactivity (PSR sort gate)” value is listed as “high polyreactivity”.

As to “QVQLVESGGGLVQAGGSLRLSCAASGRTFILYAMGWYRQAPWKERELVAAITRRGGRTYYADSVKGRFTISRDNAKNTVYLQMNSLKREDTAVYYCAADQYYYTQPSDMDYWGQGTQVTVSS”, the “polyreactivity (PSR sort gate)” value was “high polyreactivity”. Take “QVQLVESGGGLVQAGGSLRLSCAASGRTFILYTMGWYRQAPGKERELVAAITTGGSTSYADSVKGRVTISRDNAKNTVYLQMNSLKPEDTAVYYCNALSRLRYKPRLYDYWGQGTQVTVSS”: the “polyreactivity (PSR sort gate)” value was “low polyreactivity”. As for “QVQLVESGGGLVQAGGSLRLSCAASGRTFIPYAMGWYRQAPGKERELVAAISYSGGSTYYADSVKGRFTISRDNAKNTVYLQMYSLKPEDTAVYYCNAYYGSYYYDYNYWGQGTQVSVSS”, the “polyreactivity (PSR sort gate)” value was “high polyreactivity”.

With “QVQLVESGGGLVQAGGSLRLSCAASGRTFIRNAMGWYRQAPGKERELVAAISRGGGTYYADSVKGRFTISRDNAKNTVYLQMNSLKPEDTAVYYCAAGFRSPYYWGQGTQVTVSS”, the “polyreactivity (PSR sort gate)” value was “high polyreactivity”.

For the sequence “QVQLVESGGGLVQAGGSLRLSCAASGRTFIRNAMGWYRQAPGKERELVASIRRSGGSTYYADSVKGRFTISRDNAKNTVYLQMNSLKPEDTAVYYSAAVHRFLLGYGYWGQGTQVTVSS”, the “polyreactivity (PSR sort gate)” value was “high polyreactivity”. For “QVQLVESGGGLVQAGGSLRLSCAASGRTFIRYAMGWYRQAPGKESELVAAISSRGGRTHYADSVKGRFTISRDNAKNTVYLQMNSLKPEDTAVYYCAADLTYVTVPGASYDYWGQCTQVTVSS”, the “polyreactivity (PSR sort gate)” value is listed as “low polyreactivity”. The result for “QVQLVESGGGLVQAGGSLRLSCAASGRTFIRYAMGWYRQAPGNERELVAAISWSGDRTYYADSVKGRFTISRDNAKNTVYLQMNSLKPEDTAVYYCNAYRYLRTATFLKFDYWGQGTQVTVSS” reads “high polyreactivity”; that for “QVQLVESGGGLVQAGGSLRLSCAASGRTFIRYTTGWYRQAPGTERELVAAITSTGRTYYADSVKGRFTISRDNAKNTVYLQMNSLKPEDTAVYYCAAEAGYGDYYYGYDYWGQGTQVTVSS”, “low polyreactivity”; that for “QVQLVESGGGLVQAGGSLRLSCAASGRTFISNVIGWYRKAPGKERDLVAAITWRGGRTHYADSVKGRFTISRDNAKITVYLQMNSLKPEDTAVYYCAARYIPIQYPSYRTWGGYSWGQGTQVTVSS”, “high polyreactivity”.

In the case of “QVQLVESGGGLVQAGGSLRLSCAASGRTFISYAMGWYRQAPGKERELVAGISRGGSTYYADSVKGRFTISRDNAKNTVYLQMNSLKPEDTAVYYCAARRWISSHSYKYGYWGQGTQVTVSS”, the “polyreactivity (PSR sort gate)” value is “high polyreactivity”.

For “QVQLVESGGGLVQAGGSLRLSCAASGRTFIVNTMGWYRQAPGKERELVAAITARGGRTYYADSVKGRFTISRDNAKNTVYLQMNSLKPEDTAVYYCNARTPPREAERYYWGQGTQVTVSS”, the “polyreactivity (PSR sort gate)” value is “low polyreactivity”. “QVQLVESGGGLVQAGGSLRLSCAASGRTFIVYAMGWYRQAPGKERELVAAISGRGGGNTYYADSVKGSFTISRDNAKNTVYLQMNSLKPEDTAVYYCAADTYSWYSYRDYYYWGQGTQVTVSS”: the “polyreactivity (PSR sort gate)” value is “low polyreactivity”. As to “QVQLVESGGGLVQAGGSLRLSCAASGRTFIVYAMGWYRQAPGKERELVARISSGSRTSYADSVKGRFTISRDNAKNTVYLQMNSLKPEDTAVYYCAKSRVIKYEFDYWGQGTQVTVSS”, the “polyreactivity (PSR sort gate)” value is “low polyreactivity”. Take “QVQLVESGGGLVQAGGSLRLSCAASGRTFIYNTMGWYRQAPGKERELVAAITSGGSTNYADSVKGRFTISRDNAKNTVYLQMNSLKPEDTAVYYCATQGLSAPFDGFVNSRFDHWGQGTQVTVSS”: the “polyreactivity (PSR sort gate)” value is on record as “low polyreactivity”.

“QVQLVESGGGLVQAGGSLRLSCAASGRTFKAYAMGWYRQAPGKERELVAGISWSGGNTYYADSVKGRFTISRDNAKNTVYLQMNSLKPEDTAVYYCAASLGGLWEDDYWGQGTQVTVSS”: the “polyreactivity (PSR sort gate)” value was “high polyreactivity”. Consider “QVQLVESGGGLVQAGGSLRLSCAASGRTFKDYAMGWYRPAPGKERELVAAISWSGGDTYYADSVKGRFTISRDNAKNTVYLQMNSLKPEDTAVYYCNADPSGVFFYSLEFDYWGQGTQVTVSS”, for which the “polyreactivity (PSR sort gate)” value was “low polyreactivity”. The result for “QVQLVESGGGLVQAGGSLRLSCAASGRTFKGNAMGWYRQAPGKEIELVAAISKSGGRTYYADSVKGRFTISRDNAKNTVYLQMNSLKPEDTAVYYCAVDVGPTKVRFGYLGQGTQVTVSS” reads “high polyreactivity”. The result for “QVQLVESGGGLVQAGGSLRLSCAASGRTFKGYAMGWYRQAPGKERELVAAISYRGGSTYYADSVKGRFTISRDKAKKTFYLQMNSLKPEDTAVYYCAADIQPYVYDGYPVGMDYWGQGTQVTVSS” reads “high polyreactivity”.
